# Patent US20230056099 (published 2023)
# Target: thrombin (human alpha-thrombin) (UniProt P00734;P00734 P00734:328-363,P00734:364-622)
# Experiment: inhibition; 0.1 nM thrombin, 2 uM fibrinogen, absorbance 350 nm
row,Binder,IC50 [nM]
1,"TBCA (ssDNA, circular (5' and 3' ends joined)) DNA: ATCTCGACTAGTCATAGGGGGCGCGAACATACGCGGTTGGTGTGGTTGGCTGACAATACTCGTTTTTGGTGTCTCGGAT",0.15
2,"D3 (ssDNA, circular (5' and 3' ends joined)) DNA: ATCTCGACTAGTCATAGGGGGCGCGAACATACGCGGTTGGTGTGGTTGGCTGACAA",0.13
3,"D1 (ssDNA, circular (5' and 3' ends joined)) DNA: ATCTCGACTAGTCATAGGGGGCGCGAACATACGCGGTTGGTGTGGTTGGCTGACAATACTCGTGTCTCGGAT",0.15
4,"D2 (ssDNA, circular (5' and 3' ends joined)) DNA: ATCTCGACTAGTCATAGGGGGCGCGAACATACGCGGTTGGTGTGGTTGGCTGACAATACTCGT",0.09
5,GGTTGGTGTGGTTGG (ssDNA) [TBA],1.3
